Among the data in patent US20130052176, “APTAMER FOR NGF AND USE THEREOF” (SHIONOGI & CO., LTD, published 2013) are IC50 values, retold here.

By IC50 is commonly meant the concentration that gives 50% inhibition.

The chains are these.
B1: aptamer ID 20 (ssRNA)
RNA: GGGAGAACUUCGCCAGAAGUUUGAAAGAAACCCAAAUAAAGUGUGCGCACA
modifications: 2'-F at all pyrimidines
B2: aptamer ID 4 (ssRNA)
RNA: GGGAGAACUUCGACCAGAAGUUUGAAAGAAACCCAAAUUAAAGUGAACAGUAUGUGCGCAUACUGGAUCCUCA
modifications: 2'-F at all pyrimidines
B3: aptamer ID 31 (ssRNA)
RNA: GGGAGAACUUCGACCAGAAGUCGAUAACGAACAAAACUCCCAAAGGAAUAUAUGUGCGCAUACAUGGAU
modifications: 2'-F at all pyrimidines
B4: aptamer ID 8 (ssRNA)
RNA: GGGAGAACUUCGACCAGAAGUUUGAAAGAAACCCAAAUUAAAGUGAACAGAUGUGCGCAUCA
modifications: 2'-F at all pyrimidines
B5: aptamer ID 6 (ssRNA)
RNA: GGGAGAACUUCGACCAGAAGUUUGAAAGAAACCCAAAAAAGUGAACAGUAUGUGCGCAUACA
modifications: 2'-F at all pyrimidines
B6: aptamer ID 38 (ssRNA)
RNA: GGGAGAACUUCGACCAGAAGUCGAUAACGAACAAAACUCCCAAAGGAAUAUAUGUGCGCAUAC
modifications: 2'-F at all pyrimidines
B7: aptamer ID 53 (ssRNA)
RNA: GGGAGAACUUCGACCAGAGUCGAGAGCGAAAGAAACUCCCAAAUAUGUGCGCAUAC
modifications: 2'-F at all pyrimidines
B8: aptamer ID 33 (ssRNA)
RNA: GGGAGAACUUCGACCAGAAGUCGAUAACGAACAAAACUCCCAAAGGAAUAUAUGUGCGCAUACAUGGAUCCU
modifications: 2'-F at all pyrimidines
B9: aptamer ID 34 (ssRNA)
RNA: GGGAGAACUUCGACCAGAAGUCGAUAACGAACAAAACUCCCAAAGGAAUAUGUGCGCAUACA
modifications: 2'-F at all pyrimidines
B10: aptamer ID 36 (ssRNA)
RNA: B9 RNA with G45A, G46A, A47U
modifications: 2'-F at all pyrimidines
B11: aptamer ID 35 (ssRNA)
RNA: B9 RNA with A47U
modifications: 2'-F at all pyrimidines
B12: aptamer ID 3 (ssRNA)
RNA: GGGAGAACUUCGACCAGAAGUUUGAAAGAAACCCAAAUUAAAGGAACAGUAUGUGCGCAUACAUGGAUCCUCA
modifications: 2'-F at all pyrimidines
B13: aptamer ID 5 (ssRNA)
RNA: GGGAGAACUUCGACCAGAAGUUUGAAAGAAACCCAAAUUAAAAACAGUAUGUGCGCAUACA
modifications: 2'-F at all pyrimidines
B14: aptamer ID 7 (ssRNA)
RNA: B13 RNA with A43G, A44G, C45A
modifications: 2'-F at all pyrimidines
B15: aptamer ID 52 (ssRNA)
RNA: GGGAGAACUUCGACCAGAAGUUUGAAAAAAACCCAAAUUAAAGUAUGUGCGCAUACA
modifications: 2'-F at all pyrimidines
B16: aptamer ID 54 (ssRNA)
RNA: GGGAGAACUUCGACCAGAAGAUUUGAAAAAAACCCAAAUUAAAGUAUGUGCGCAUACA
modifications: 2'-F at all pyrimidines
B17: aptamer ID 2 (ssRNA)
RNA: GGGAGAACUUCGACCAGAAGUUUGAAAGAAACCCAAAUUAAAGUGAAGUAUGUGCGCAUACAUUCCUCA
modifications: 2'-F at all pyrimidines
B18: aptamer ID 37 (ssRNA)
RNA: GGGAGAACUUCGACCAGAAGUCGAUAACGAACAAAACUCCCGGAAUAUAUGUGCGCAUACA
modifications: 2'-F at all pyrimidines
B19: aptamer ID 46 (ssRNA)
RNA: GGGAGAACUUCGACCAGAAGUCGAUAACGAACAAAACUCCCAAAUAUGUGCGCAUAC
modifications: 2'-F at all pyrimidines
B20: aptamer ID 51 (ssRNA)
RNA: GGAGAACUUCGACCAGAGUCGAUAACGAACAAAACUCCAAAUAUGUGCGCAUAC
modifications: 2'-F at all pyrimidines
B21: aptamer ID 9 (ssRNA)
RNA: GGGAGAACUUCGACCAGAAGUUUGAAAGAAACCCAAAUUAAAAAGAUGUGCGCAUCA
modifications: 2'-F at all pyrimidines
B22: aptamer ID 16 (ssRNA)
RNA: GGGAGAACUUCGCCAGAAGUUUGAAAGAAACCCAAAUUAAAAAGAUGUGCGCAUCA
modifications: 2'-F at all pyrimidines
B23: aptamer ID 13 (ssRNA)
RNA: GGGAGAACUUCGCCAGAAGUUUGAAAGAAACCCAAAUUAAAGUAUGUGCGCAUACA
modifications: 2'-F at all pyrimidines
B24: aptamer ID 15 (ssRNA)
RNA: B23 RNA with A35U, A36U, U37A, U38A
modifications: 2'-F at all pyrimidines
B25: aptamer ID 58 (mixed)
mixed: GGGAUAAAAAUAGAGUUUGATAAACACCUGUAUTAAAACCC
modifications: 5' cholesterol; 3' idT; 2'-F pyrimidines (except dT at 21,34) and a37,a38; 2'-OMe other purines except 2'-OH at 4,7,30
B26: aptamer ID 59 (mixed)
mixed: B25 mixed with T34U
modifications: 5' cholesterol; 3' idT; 2'-F pyrimidines (except dT at 21 and dC at 41) and a37,a38; 2'-OMe other purines except 2'-OH at 4,7,30
B27: aptamer ID 47 (ssRNA)
RNA: GGGAGAACUUCGACCAGAGUCGAUAACGAACAAAACUCCCAAAUAUGUGCGCAUACA
modifications: 2'-F at all pyrimidines
B28: aptamer ID 11 (ssRNA)
RNA: GGGAGAACUUCGCCAGAAGUUUGAAAGAAACCCAAAUAAAAAGUAUGUGCGCAUACA
modifications: 2'-F at all pyrimidines
B29: aptamer ID 12 (ssRNA)
RNA: B28 RNA with A38U
modifications: 2'-F at all pyrimidines
B30: aptamer ID 14 (ssRNA)
RNA: B28 RNA with A36U
modifications: 2'-F at all pyrimidines
B31: aptamer ID 49 (ssRNA)
RNA: GGGAGAACUUCGACCAGAAGUCGAUAACGAACAAAACUCCCAAUAUGUGCGCAUACA
modifications: 2'-F at all pyrimidines
B32: aptamer ID 18 (ssRNA)
RNA: GGGAGAACUUCGCCAGAAGUUUGAAAGAAACCCAAAUAAAGAUGUGCGCAUCA
modifications: 2'-F at all pyrimidines
B33: aptamer ID 40 (ssRNA)
RNA: GGGAGAACUUCGACCAGAAGUCGAUAACGAACAAAACUCCCAAAUAUAUGUGCGCAUACA
modifications: 2'-F at all pyrimidines
B34: aptamer ID 42 (ssRNA)
RNA: B33 RNA with A42G, A43G, U45A, A46U, U47A
modifications: 2'-F at all pyrimidines
B35: aptamer ID 44 (ssRNA)
RNA: GGGAGAACUUCGACCAGAAGUCGAUAACGAACAAAACUCCCAAAGGAUGUGCGCAUACA
modifications: 2'-F at all pyrimidines
B36: aptamer ID 45 (ssRNA)
RNA: B35 RNA with G45U, G46A
modifications: 2'-F at all pyrimidines
B37: aptamer ID 17 (ssRNA)
RNA: GGGAGAACUUCGCCAGAAGUUUGAAAGAAACCCAAAUUAAAGAUGUGCGCAUCA
modifications: 2'-F at all pyrimidines
B38: aptamer ID 50 (ssRNA)
RNA: GGGAGAACUUCGACCAGAGUCGAUAACGAACAAAACUCCCAAUAUGUGCGCAUAC
modifications: 2'-F at all pyrimidines
B39: aptamer ID 39 (ssRNA)
RNA: B18 RNA with G42A, G43A, A45G, U46G, U48A
modifications: 2'-F at all pyrimidines
B40: aptamer ID 41 (ssRNA)
RNA: B18 RNA with G42A, G43A, A45G, U46G, A47U, U48A
modifications: 2'-F at all pyrimidines

Positions count from the first letter of the chain named.

For one series, the target named is T1, NGF (nerve growth factor) (human, UniProt P01138 P01138:122-241). Put plainly: cell_activity; neurite outgrowth, NGF 1.1 nM; SPR binding; TF-1 IC50 <1.0 nM. The following applies: tags: amine-coupled to CM5 chip in SPR; soluble in cell assays; chain copies: 2. A general note: SPR reads the build-up and loss of mass on a sensor chip optically.
T1 sequence (P01138 122-241, one chain of several): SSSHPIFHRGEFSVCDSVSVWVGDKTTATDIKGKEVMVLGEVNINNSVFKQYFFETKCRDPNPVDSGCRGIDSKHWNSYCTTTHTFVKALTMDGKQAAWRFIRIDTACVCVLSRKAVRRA
For GGGAGAACUUCGCCAGAAGUUUGAAAGAAACCCAAAUAAGUGUGCGCAC (ssRNA, 2'-F at all pyrimidines) [aptamer ID 24], the IC50 was under 1 nM.

GGGAGAACUUCGCCAGAAGUUUGAAAGAAACCCAAAUAAGUGUGCGCACA (ssRNA, 2'-F at all pyrimidines) [aptamer ID 23] registered an IC50 of under 1 nM.

GGGAGACUCGCCAGAGUUGAAAGAAACCCAAAUAAGUGUGCGCAC (ssRNA, 2'-F pyrimidines; 2'-OMe at 36,38,40,42,44; other purines 2'-OH) [aptamer ID 26(6)] yielded an IC50 of under 1 nM.

B1 returned an IC50 of 1 nM.

With GGGAGACUCGCCAGAGUUGAAAGAAACCCAAAUAAAGUGUGCGCACA (ssRNA, 2'-F at all pyrimidines) [aptamer ID 25], the IC50 is under 1 nM.

The target of another series is T1, NGF (nerve growth factor). Put plainly: cell_activity; neurite outgrowth, NGF 1.1 nM; SPR binding; blocks NGF-TrkA. The following applies: tags: amine-coupled to CM5 chip in SPR; soluble in cell assays; chain copies: 2. The protocol: (§1) The neurite outgrowth inhibitory activity of the aptamer obtained in Example 1 was evaluated by using Neuroscreen-1 cell, which is a subclone of PC-12 cells.
(§2) The cells (2500 cells per well) were cultured for one day in an RPMI-1640 medium containing 2.5% horse serum and 1.25% fetal bovine serum in a 96 well flat-bottom plate coated with collagen type IV. […] Two days later, the cytoplasm and nuclei were stained using Cellomics Neurite Outgrowth Kit (manufactured by Thermo Scientific), and neurite length per cell was measured by Cellomics ArrayScan VTI (manufactured by Thermo Scientific). With the neurite length per cell obtained by the addition of NGF alone as inhibitory activity 0%, and that of the cell obtained by NGF free culture for 2 days as inhibitory activity 100%, the inhibitory activity of the aptamer was calculated from the neurite length per cell obtained by culturing with the addition of NGF and the aptamer in mixture. When the inhibitory activity was 0% or below, ‘0%’ is indicated.
With B2, the concentration for half-maximal inhibition (IC50) is under 3 nM.

In turn, B3 yielded a half-maximal inhibitory concentration (IC50) of under 3 nM.

On to B4, for which the concentration for half-maximal inhibition (IC50) was under 3 nM.

Take B5: the IC50 is under 3 nM.

As for B6, the concentration for half-maximal inhibition (IC50) is under 3 nM.

B7 had an IC50 of 4.7 nM.

As to B8, the IC50 was under 3 nM.

Take B9: the IC50 is under 3 nM.

B10 registered an IC50 of under 3 nM.

Turning to B11, the IC50 was under 3 nM.

The molecule B12 gave an IC50 of under 3 nM.

Molecule B13 gave a concentration for half-maximal inhibition (IC50) of under 3 nM.

For B14, the IC50 is under 3 nM.

In turn, B15 displayed a half-inhibitory concentration (IC50) of 5.9 nM.

B16: the IC50 was 3 nM.

Turning to B17, the 50% inhibitory concentration (IC50) was under 3 nM.

With B18, the IC50 is under 3 nM.

For the next series, the target named is T1, NGF (nerve growth factor). Put plainly: cell_activity; neurite outgrowth, NGF 1.1 nM; SPR binding. Particulars: tags: amine-coupled to CM5 chip in SPR; soluble in cell assays; chain copies: 2. The protocol:
as §1, §2
As for B19, the IC50 worked out at 2.6 nM.

In turn, B20 displayed an IC50 of 2.7 nM.

Consider B21, for which the IC50 is under 3 nM.

B22 had an IC50 of 1.1 nM.

On to B23, for which the IC50 worked out at 1.3 nM.

B24 yielded an IC50 of 1.9 nM.

In the case of B25, the 50% inhibitory concentration (IC50) was 5.4 nM.

In turn, B26 gave a half-inhibitory concentration (IC50) of 6.9 nM.

Regarding B27, the 50% inhibitory concentration (IC50) was 2.5 nM.

For B28, the IC50 turned out to be 1.5 nM.

On to B29, for which the IC50 came to 1.4 nM.

For B30, the IC50 amounted to 1.2 nM.

Molecule B31 showed an IC50 of 1.8 nM.

In turn, B32 had an IC50 of under 10 nM.

Molecule B33 gave an IC50 of under 3 nM.

B34 displayed an IC50 of under 3 nM.

For the molecule B35, the IC50 is under 3 nM.

B36 showed an IC50 of under 3 nM.

The molecule B37 gave an IC50 of under 1 nM.

B38 returned an IC50 of 2.6 nM.

The molecule B39 had an IC50 of under 3 nM.

Turning to B40, the IC50 is under 3 nM.
